# Data as given in patent US20230416402A1 (DRAGONFLY THERAPEUTICS, published 2023).
# B1: A49-F3′-TriNKET-Trastuzumab (bispecific antibody, human IgG1)
# heavy: EVQLVESGGGLVKPGGSLRLSCAASGFTFSSYSMNWVRQAPGKGLEWVSSISSSSSYIYYADSVKGRFTISRDNAKNSLYLQMNSLRAEDTAVYYCARGAPMGAAAGWFDPWGQGTLVTVSSASTKGPSVFPLAPSSKSTSGGTAALGCLVKDYFPEPVTVSWNSGALTSGVHTFPAVLQSSGLYSLSSVVTVPSSSLGTQTYICNVNHKPSNTKVDKKVEPKSCDKTHTCPPCPAPELLGGPSVFLFPPKPKDTLMISRTPEVTCVVVDVSHEDPEVKFNWYVDGVEVHNAKTKPREEQYNSTYRVVSVLTVLHQDWLNGKEYKCKVSNKALPAPIEKTISKAKGQPREPQVCTLPPSRDELTENQVSLTCLVKGFYPSDIAVEWESNGQPENNYKTTPPVLDSDGSFFLYSWLTVDKSRWQQGNVFSCSVMHEALHNHYTQKSLSLSPG
# chain: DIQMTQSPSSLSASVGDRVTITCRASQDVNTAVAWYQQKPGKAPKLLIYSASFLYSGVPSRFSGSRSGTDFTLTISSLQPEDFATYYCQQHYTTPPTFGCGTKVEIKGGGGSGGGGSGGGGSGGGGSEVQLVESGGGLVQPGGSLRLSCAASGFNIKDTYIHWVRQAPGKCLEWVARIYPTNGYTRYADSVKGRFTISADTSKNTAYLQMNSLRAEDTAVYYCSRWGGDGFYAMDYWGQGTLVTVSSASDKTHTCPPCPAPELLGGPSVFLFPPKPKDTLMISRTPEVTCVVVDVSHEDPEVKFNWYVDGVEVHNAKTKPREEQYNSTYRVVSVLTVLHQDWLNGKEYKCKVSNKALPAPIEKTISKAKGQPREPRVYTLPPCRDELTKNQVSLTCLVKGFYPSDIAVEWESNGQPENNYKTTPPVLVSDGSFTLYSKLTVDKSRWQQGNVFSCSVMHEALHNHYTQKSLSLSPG
# light: DIQMTQSPSSVSASVGDRVTITCRASQGISSWLAWYQQKPGKAPKLLIYAASSLQSGVPSRFSGSGSGTDFTLTISSLQPEDFATYYCQQGVSFPRTFGGGTKVEIKRTVAAPSPPSDEQLKSGTASVVCLLNNFYPREAKVQWKVDNALQSGNSQESVTEQDSKDSTYSLSSTLTLSKADYEKHKVYACEVTHQGLSSPVTKSFNRGEC
# Target: HER2 (human, UniProt P04626 23-1255)
# Assay: cell-based or functional assay
binder,measurement,value
B1,EC50 in KHYG-1-CD16V cell killing of Hs578T cells (DELFIA cytotoxicity assay),0.376 nM
same,EC50 in KHYG-1-CD16V cell-mediated cytolysis of BT-20 cells (DELFIA cytotoxicity assay),1.16 nM
same,EC50 in NK cell-mediated killing of MCF-7 cells (DELFIA cytotoxicity assay),0.878 nM
same,EC50 in NK cell-mediated lysis of ZR75-1 cells (DELFIA cytotoxicity assay),0.043 nM
same,"EC50 in enhancing NK cell-mediated cytolysis of SKBR-3 cells (DELFIA cytotoxicity assay, 3 healthy donors)",0.008 nM
same,EC50 in inducing NK cell-mediated lysis of 786-0 cells (DELFIA cytotoxicity assay),0.638 nM
same,EC50 in triggering NK cell-mediated killing of H661 cells (DELFIA cytotoxicity assay),0.054 nM
same,fold higher potency than trastuzumab in triggering NK cell-mediated killing of SKBR-3 cells,2.5 fold
